In the nanobody polyreactivity screen of Harvey et al. (2022):

Test: yeast display, Sf9 membrane polyspecificity reagent, FACS + sequencing; frameworks hold sequencing errors
Summary of the method: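 Galactose induction of a Saccharomyces cerevisiae BJ5465 synthetic nanobody display library ran 36–48 hours. The cells were then stained for 1 hour at 4 °C with 10% biotinylated, detergent-solubilized Sf9 membrane reagent, pulled down on streptavidin microbeads and FACS-sorted into low and high (top ~1%) gates on expression and reagent-binding fluorescence. Labels for polyreactivity follow the gate of origin.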

Sequence	polyreactivity (PSR sort gate)
QVQLVESGGGLVQAGGILRLSCAASGRTFGINAMGWYRQAPGKERELVARIRKTVGSTYYADSVKGRFTISRDNAKNTVYLQMNSLKPEDTAVYYCAADLRYGYLYPYDSWGQGTQVTVSS	high polyreactivity
QVKLVESGGGLVQAGGSLRLSCAASGSTFWIYAMAWYRQAPGKERELVAAISWRGGRTYYADSVKGRFTISRDNAKNTVYLQMNSLKPEDSAVYYCYAQKRDGSMGYWGQGTQVTVSS	high polyreactivity
QVQLVESGGGLVQAGGSLRLSCSASGSIFGFYAMGWYRQEPGKERELVAAIDSGDSTNYADSVKGRFTISRDNAKNTVYLQMNSLKPEDTAVYYCNARYTLFARYGYDYWGQGTQVTVSS	low polyreactivity
QVQLEDSGGGLVQAGGSLRLSCAASGRTFTYYAMGWYRQAPGKERELVATISYSGGSTYYADSVKGRFTISRDNAKNTVYLQMNSLKPEDTAVYYCATSGSGPWWKLYYSGQGTQVTVSS	low polyreactivity
QDQLVDSGGGLVQAGGSLRLSCAASGYIFDRYAMGWYRQEPGKERELVAAISGRGGSTYYADSVKGRFTISRDNAKNTVYLQMYSLKREDTAVYYCARDVYVRNGQRARFDSWGQGTQVTVSS	high polyreactivity
HVQLVESGGGLVQAGGSLRLSCAASGFIGIYALGWYRQAPGKERELVAAITTSGGRTYYADSVKGRFTISRDNAKNTVYLQMNSLKPEDTAVYYCAAPWRLFSLYDYWGQGTQVTVSS	low polyreactivity
QVQLVESGGGLVQAGGSLRLSCAASGSIFTRYAMGWYRQEPGKERELVAAITTRGSSTYYADSVKGRFTISRDYAKNTVYLQMNSLKPEDTAVYYCATVVRLYRGRYRYDYWGQGTQVTVSS	high polyreactivity
QVQLVESGGGLVQAGGSLRLSCAASGSIFRNNTMGWYRQAPGKERELVAAISGRGTRTSYADSVKGRFTISRDNAKNTVYLQMNSLKPEDTAVYYCAAVYYWRPGWYVRFDYWGQGTQVTVSS	low polyreactivity
QVQLVESGGGLVQAGGSLRLSCAASGFTFNNYAMGWYRQAPGKERELVAAISSGAGTYYADSVKGRFTISRDNAKNTVYLQMNSLKPEDTAVYYCNASLKYQGRTRITYRDDYWGQGTQVTVSS	low polyreactivity
QVQLVESGGGLVQAGGSLRLTCAASGRTFKGYAMGWYRQEPGKERELVAAISYRGGSTYYADSVKGRFTISRDNAKNTVYLQMNSLKPEDTAVYYCAAQGRSKYRGYYYWGQGTQVTVSS	high polyreactivity
QVQLVESGGGLVQAGGSLRLSCAASGSIFSYNMGWYRQAPGKEREFVAAISSGGSTYYADSVKGRFTISRDNAKNTVYLQMNSLKPEDTAVYYCNRVRRGVWRQDDYWGQGTQVTVSS	high polyreactivity
QVQLVESGGGLVQAGGSLRLSCAASGRTFYAYAMGWYRQAPGKERELVASISDRGGSTYYADSVKGRFTISRDNAKNTVYVQMNSLKPEDTAVYYCAAEYRTQRWFGSWGQGTQVTVSS	high polyreactivity
QVQLVESGGGLVQAGGSLRLSCAASGLTFGDYAMGWYRQAPGKERELVAAITKSGGRTYYADSVKGRFTISRDNAKNTVYLQMNSLKPEDTEVYYCATRKGRRYGYNYWGQGTQVTVSS	high polyreactivity
QVQLVESGGGLVQAGGSLRLSVAASGRTFYSYSMGWYRQAHGKERELVASITNGETKNYADSVKGRFTISRDNAKNTVYLQMNSLKPEDTAVYYCAADDSSRTTYDYWGQGTQVTVSS	low polyreactivity
QVQLVESGGGLVQAGGSLRLICAASGSIFITYAMGWSRPAPGKERELVAAIRDSGDRTYYADSVKGRFTISRDNAKNTVYLQMNSLKPEDTAVYYCNARWQERLKYDYWGQGTQVTVSS	low polyreactivity
QVQLVESGGGLVQAGGSLRLSCAASGFIFYDYDMGWYRQAPGKERELVAAITYSGGSTYYADSVKGRFTISRDNAKNSVYLQMNSLKPEDTAVYYCAAVKSRYAEAVDYYYWGQGTQVNVSS	low polyreactivity
QVQLVESRRGLVQAGGSLRLSCASSGFTVCWYAMGLYRPAPGTERELVAAISSGGSTNYADSVKGRFTISRDNAKNTVYFQMNSLKPEDTAVYYCARRLWYSDRYSARWQYDYWGQGTQVTVSS	high polyreactivity
QVQLVESGGGLVQAGGSLRLSCAASGSIFYRYAMGWYRQAPGKERELVAAISSRGGSTNYADSVKGRFTISRDNAKNTVYLQMNSLKPEDTAVYYCAAGWNYLRQFNFNYWGQGTQVTVSS	high polyreactivity
QVQLVESGGGLVQAGGSLRLSCAASGLTFDAYAMGWYRQAPGKERELDAAISSGGNTYYADSVKGRFTISRDNAKNTVYLQMNSLKPEDTAVYYCNAVGYYKYFFLAYEYDYWGQGTQVTVSS	low polyreactivity
QVQLVESGGGLVQAGGSLRLSCPASGSTFARNAMGWSRQAPGKEREFVASIRWGGGSTYYADSVKARFTISRDNAKNTVYLQMNSLKAEDTAVYYCATRGWSKHLFGGYTQYYYWGQGTQVTVSS	high polyreactivity
QVQLVESGGGLVQAGGSLRLSCAASGSISVANAMGWYRQAPGKERELVAGITSSGSTYYADSVKGRFTISRDNAKNTVYLQMNSLKPEDTAVYYCNADVHYSTFYTVVVSLYYWGQGSQVTVSS	low polyreactivity
QVQLVESGGGLVQAGGSLRLSCAASGRIFTTNAMGWYRQAPGKERELVASISKSGGSTYYADSVKGRFTISRDTAKNTVYLQMNSLKPEDTAVYYCAASSYSTSYIRGDYWGQGTQVTVSS	low polyreactivity

Sequence	polyreactivity (PSR sort gate)
QVQLVESGGGLVQAGGSLRLSCAASGFIFHTYAMGWYRQAPGKERELVAAISGGTSSTYYADSVKGRFTISRDNAKNTVYLQMNSLKPEDTAVYYCAARSRRGGYPRYYYWGQGTQVTVSS	high polyreactivity
QVKLVESGGGLVQAGGSRRLSCAASGLIFYSYAMGWSRQAPGKERELVAAISSRGGSTYYADSVKGRFTISRDNAKNTVYLQMNSLKPDDTAVYYCNAYFLLPHYDYWGQGTQVTVSS	low polyreactivity
QVQLVESGGGLVQAGGSLRLSCAASGFIFSNNDRGLYRQAPGKDREVVAVINGGGSTYYADSVKASFTISRDNAKNTVFLQMNSLKPEDTAVYYCARKSWPKERRVDPGYDYWGQGTKVTVSS	low polyreactivity
QVQLVESGGALVQAGGSLRLSCAASGSIFVSYAKGWSRPAPGKERELLATITTSTGSTYADSVKGRFTISRDNAKNTVYLQMNSLKPEDTAVYYCAARYQPWLKYDFDSWGQGTQVTVSS	low polyreactivity
QVQLVESGGGLVQAGGSLRLSCADSGSTFGKNAMGWYRQAPGKDRELVAAITRRGVSTNYADSEKGRFTISRDNAKNTVYLQMNSLKPEDTAVYYCARGSELGYYAWVYYLGQGTQVTVSS	high polyreactivity
QVQLVESGGGLVQAGGILRLSCAASGSTMGYYPMGWYRQEPGKERELVAAIRYSDGNTYYADSVKGRFTISRDTAKNTVYLQMNSLKPEDTAVYYCAADGGYYGRDYWGQGTQVTVSS	high polyreactivity
QVQLVESGGGLVQAGGSLRLSCAASGGTFARYAMGWYRQAPGKERELVAAITRSGGTTYYADSVKGRFTISRDNAKNTVYLQMNSLKPEDTAVYYCAALPIVDYYGYGYWGQGTQVNVSS	high polyreactivity
QVQLVESGGGLVQAGGSLRLSCAASGSTQVYYDMGWYRQAPAKERELVATITGTDSTYYADSVKGRFTISRDNAKNTVYLQMNSLKPEDTADCAADRAASRPDYDYWGEGTQVTVSS	low polyreactivity
QVQLVESVGGLVQAGGSLRLSCAASGGIFNGYAMGWYRQAPGKERELVAAITASGARTYYADSVKGRFTISRDNAKNTVYLQMNSLKPEDTAVYYCAKGFSYPGGPYYYFLGYGYWGQGTQVTVSS	high polyreactivity
QGQLVESGGGLVQAGGSLRLSCAASGFTFDYYAMGWYRQAPGKARELVAAITTAASTNYADSVKGRFTISRDTAKNTVYFQMNSLKPEDTAVYYCAASWWPWYISWDDYWGQGTQVTVSS	high polyreactivity
QVQLVESGGGLVQAGGSLRLSCAASGRIFSRYAMGWYRQAPGKEREMVAAIRSNGGRTYYADSVKGRFTISRDNAKNTVYLQMNSLKPEDTAVYYCAAAGGGKVSYRDYDYWGQGTQVTVSS	high polyreactivity
QVQLVDSGGGLVQAGGSLRLSCSASGSTFSVYAMGWYRQAPGKERELVAAITSGGSTNYADSVKGRFTISRDNAKNTVYLQMNSLKPEDTAVFYCNAYYVLIGYQPHWGYYWGQGTQVTVSS	low polyreactivity
QVQLVESGGGLVQAGGSLRLSCAASGSIFGYYAMGWYRQAPGKERELVAAITRVSSTNYADSVKGRFTISRDNAKYTVYLHMNSLKPEDTAVYYCAARTLRYYQGNTWGDDYWGQGTQVTVSS	high polyreactivity
QVQLVESGGGLVQAGGSLRISCAASGSIFYWNTMGWYRQAPGKERELVATITRSGGSTRYADSVKGRCTISRDNAKITVYLQMNSLKPEDTAVYYCAAYRVYKRVVRGFDYWGQGTQVTVSS	low polyreactivity
QVQLVESGGGLVQAGGSLRLSCAASGSILRYYTMGWYRQAPGKERELVASIRATGGNTYYADSVKGRFTISRDNAKNTVYLQMNSLKPEDTAVYYCAARYRKKYYWGQGTQVTVSS	high polyreactivity
QVQLVESGGGLVQAGGSLRLSCASSGRTFYDNTMGWYRQAPGKERELVAGISYSGGSTYYADSVKGRFTISRDNAKNTVYLQMNSLKPEDTAVYYCNAELYFPYFDGKTRHGGYWGQGTQVTVSS	low polyreactivity
QVQLVESGGGLVQAGGSLRLSCAASGSTYYYYAMGWYRQAPGKERELVASIRSGGNTNYADSVKGRFTISRDNAKNTVYLQMKSLIPEDTAVYYCASRYMGSYSGGNYWGQVTQVTVSS	low polyreactivity
QVQLVESGAGLVQAGGSLRLSCAASGGTLRYYAMGWYRPAPGKEREFVASISRSGGSTYYADSVKGRFTISRYNAKNTVYLQMNSLKPEDTAVYYCAAYWSPGYTTGRGYWGQGTQVTVSS	high polyreactivity
QVQLVESGGGLVQAGGSLRLSCAASGSTSGKNAMGWYRQAPGKERELVAVITYSGSRTYYADSVKGRFTISRDNAKNTVYLQMNSLIPEDTAVYYCAAVGGGVSFRGNYWGQGTQVTVSS	high polyreactivity
QVQLVESGGGLVQAGGSLLLSSAASGRTFSINAMGWYRQAHGKERELVAAITWSGGSTYYADSVKGRFTISRDNAKNTVYLQMNSLKPEDTAVYYCNAGLGKFPVKGGRRYRLDYSGQGTQVTVSS	low polyreactivity
QVQLVESVGGLVQAGGSLRLSCAASGNTFRYNTMGWYRQAPGKERELVAVITRRGSSTYYADSVKGRFTISRDNAKNTVYLQMNSLKPEDTAVYYCAAGYGRYGYVYSGYGKWEDYWGQGTQVTVSS	high polyreactivity
